Experimental data from PMC2680711.

Target: Alexa-546-labeled H3-H4(E63C) (UniProt P61830)
Test: other fluorescence titration

Sequence of Vps75_(1−223) (Vps75 lacking the C-terminal acidic domain) (P53853 1-223): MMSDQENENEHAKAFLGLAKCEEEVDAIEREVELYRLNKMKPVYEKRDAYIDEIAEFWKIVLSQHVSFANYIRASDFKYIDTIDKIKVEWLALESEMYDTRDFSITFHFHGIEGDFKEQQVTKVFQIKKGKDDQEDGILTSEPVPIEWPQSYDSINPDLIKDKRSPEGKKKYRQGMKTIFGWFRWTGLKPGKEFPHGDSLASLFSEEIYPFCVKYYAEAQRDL

Kd	Substance
150 nM	Rtt109 (recombinant, purified) (from UniProt Q07794 1-436) (enzyme)
13 nM	Vps75_(1−223) (Vps75 lacking the C-terminal acidic domain) (from UniProt P53853 1-223) (domain or fragment)
